{"source": "paper PMC9684555", "about": "“Structure- and computational-aided engineering of an oxidase to produce isoeugenol from a lignin-derived compound” (Nature Communications, 2022)", "key": {"COc1cc(CO)ccc1O": {"system": "T1, COc1cc(CO)ccc1O", "T1 construct": "full length, 526 residues, C-terminal His6 tag (pBAD-EUGO-His6x), E. coli NEB10beta; covalent FAD; homodimer; mutants for crystals from His-SUMO fusion, tag cleaved", "assay": "purified protein", "assay_type": "biochemical, Rhodococcus jostii", "conditions": "50 mM KPi pH 7.5, O2 co-substrate, 0.05 µM enzyme"}, "CCCc1ccc(O)c(OC)c1": {"system": "T2, CCCc1ccc(O)c(OC)c1", "T2 construct": "full length, 526 residues, C-terminal His6 tag (pBAD-EUGO-His6x), E. coli NEB10beta; covalent FAD; homodimer; mutants for crystals from His-SUMO fusion, tag cleaved", "assay": "purified protein", "assay_type": "biochemical, Rhodococcus jostii", "conditions": "50 mM KPi pH 7.5, 10% v/v DMSO, 10 µM to 1 mM substrate, O2 co-substrate"}}}
{"substance": "EUGO (eugenol oxidase) (Rhodococcus jostii RHA1; A423M/D151E/H434Y/I445D/Q425S/S394V/S518P/S81H)", "values": [{"measurement": "Km", "setting": "COc1cc(CO)ccc1O", "value": "94.9 ± 7.8", "unit": "µM"}, {"measurement": "kcat", "setting": "COc1cc(CO)ccc1O", "value": "2.8 ± 0.07", "unit": "s⁻¹"}, {"measurement": "Km", "setting": "CCCc1ccc(O)c(OC)c1; 100 nM enzyme", "value": "7.4 ± 0.4", "unit": "µM"}, {"measurement": "kcat", "setting": "CCCc1ccc(O)c(OC)c1; 100 nM enzyme", "value": "0.43 ± 0.007", "unit": "s⁻¹"}]}
{"substance": "EUGO (eugenol oxidase) (Rhodococcus jostii RHA1; A423M/D151E/H434Y/I445D/S394V/S518P/S81H)", "values": [{"measurement": "Km", "setting": "COc1cc(CO)ccc1O", "value": "2.9 ± 0.2", "unit": "µM"}, {"measurement": "kcat", "setting": "COc1cc(CO)ccc1O", "value": "0.15 ± 0.002", "unit": "s⁻¹"}, {"measurement": "Km", "setting": "CCCc1ccc(O)c(OC)c1; 1.0 µM enzyme", "value": "3.0 ± 0.2", "unit": "µM"}, {"measurement": "kcat", "setting": "CCCc1ccc(O)c(OC)c1; 1.0 µM enzyme", "value": "0.08 ± 0.002", "unit": "s⁻¹"}]}
{"substance": "EUGO (eugenol oxidase) (Rhodococcus jostii RHA1; A423M/H434Y/I445D/S394V/S518P/S81H)", "values": [{"measurement": "Km", "setting": "COc1cc(CO)ccc1O", "value": "7.1 ± 0.6", "unit": "µM"}, {"measurement": "kcat", "setting": "COc1cc(CO)ccc1O", "value": "0.075 ± 0.001", "unit": "s⁻¹"}, {"measurement": "Km", "setting": "CCCc1ccc(O)c(OC)c1; 1.0 µM enzyme", "value": "3.4 ± 0.4", "unit": "µM"}, {"measurement": "kcat", "setting": "CCCc1ccc(O)c(OC)c1; 1.0 µM enzyme", "value": "0.028 ± 0.0003", "unit": "s⁻¹"}]}
{"substance": "EUGO (eugenol oxidase) (Rhodococcus jostii RHA1; A423M/H434Y/I445D/S518P/S81H)", "values": [{"measurement": "Km", "setting": "COc1cc(CO)ccc1O", "value": "177.6 ± 15.8", "unit": "µM"}, {"measurement": "kcat", "setting": "COc1cc(CO)ccc1O", "value": "4.8 ± 0.2", "unit": "s⁻¹"}]}
